Molecular target: L7Ae;Nop5;fibrillarin L113K;V223E ((printed as Pf);(printed as Pf);(printed as Pf)) (UniProt Q8U160+Q8U4M1+Q8U4M2)
Experiment: NMR PRE + SAXS/SANS ensemble
Conditions: half-loaded mono-RNP, 50 mM NaPi, 500 mM NaCl, pH 6.6, 100% D2O (NMR), 55 C, SANS in 42%:58% D2O:H2O, substrate at 1.2-1.25 molar equivalents, scale: % [on,off] conformers

Sequence	binding signal (ddG vs substrate D' 0.86 +/- 0.55 kcal/mol)	binding signal
GCGAGCAAUGAUGAGUGAUGGGCGAACUGAGCUCGAAAGAGCAAUGAUGACGGAGGUGAUCACUGAGCUCGC / GUAGAUCACCUCCG [st-sR26 + substrate D]	34	
GCGAGCAAUGAUGAGUGAUGGGCGAACUGAGCUCGAAAGAGCAAUGAUGACGGAGGUGAUCACUGAGCUCGC / GCUUCGCCCAUCAC [st-sR26 + substrate D']		66

Source: paper PMC7089733
